# Measurements from the Immune Epitope Database (IEDB).
# Key:
# [1] = biological target: HLA-B*39:01; test: IEDB peptide-MHC binding, purified MHC/direct/fluorescence; filed as Kd, often an IC50 or EC50 that approximates it; ≥ and ≤ were set here for values at or beyond the usual limits of such assays
# [2] = biological target: HLA-B*15:09; test: as above
# [3] = biological target: HLA-A*31:01; test: as above
# [4] = biological target: HLA-B*08:01; test: as above
# [5] = biological target: HLA-B*44:02; test: as above; conditions: source organism: Vibrio parahaemolyticus
# [6] = biological target: HLA-B*58:01; test: as above
# [7] = biological target: HLA-B*15:01; test: as above
# [8] = biological target: HLA-A*01:01; test: as above
# [9] = biological target: HLA-B*35:01; test: as above
# [10] = biological target: HLA-A*11:01; test: as above
# [11] = biological target: HLA-B*27:05; test: as above
# [12] = biological target: HLA-B*07:02; test: as above
# [13] = biological target: HLA-A*69:01; test: as above
# [14] = biological target: HLA-A*26:01; test: as above
# [15] = biological target: HLA-B*40:01; test: as above; conditions: source organism: Vibrio parahaemolyticus
# [16] = biological target: HLA-A*03:01; test: as above
# [17] = biological target: HLA-A*02:01; test: as above
# [18] = biological target: HLA-B*57:01; test: as above
# [19] = biological target: HLA-A*24:02; test: as above; conditions: source organism: Bacillus anthracis
# [20] = biological target: HLA-A*24:03; test: as above
# [21] = biological target: HLA-B*15:17; test: as above
# [22] = biological target: HLA-A*23:01; test: as above; conditions: source organism: Bacillus anthracis
# [23] = biological target: HLA-B*18:01; test: as above
# [24] = biological target: HLA-A*68:02; test: IEDB peptide-MHC binding, purified MHC/competitive/fluorescence; filed as Kd, often an IC50 or EC50 that approximates it; ≥ and ≤ were set here for values at or beyond the usual limits of such assays; conditions: source organism: Bacillus anthracis str. A2012
# [25] = biological target: HLA-A*29:02; test: as above; conditions: source organism: Homo sapiens
# [26] = biological target: HLA-A*01:01; test: as above; conditions: source organism: Homo sapiens
# [27] = biological target: HLA-B*15:01; test: as above
# [28] = biological target: HLA-B*39:01; test: as above; conditions: source organism: Yersinia pestis Nepal516
# [29] = biological target: HLA-B*40:01; test: as above
# [30] = biological target: HLA-A*02:01; test: as above; conditions: source organism: Yersinia pestis Nepal516
# [31] = biological target: HLA-A*68:02; test: IEDB peptide-MHC binding, purified MHC/direct/fluorescence; filed as Kd, often an IC50 or EC50 that approximates it; ≥ and ≤ were set here for values at or beyond the usual limits of such assays; conditions: source organism: Francisella tularensis subsp. holarctica LVS
# [32] = biological target: HLA-B*48:01; test: as above; conditions: source organism: Francisella tularensis subsp. holarctica LVS
# [33] = biological target: HLA-B*08:01; test: IEDB peptide-MHC binding, purified MHC/competitive/fluorescence; filed as Kd, often an IC50 or EC50 that approximates it; ≥ and ≤ were set here for values at or beyond the usual limits of such assays; conditions: source organism: Francisella tularensis subsp. tularensis FSC198
# [34] = biological target: HLA-A*26:02; test: as above; conditions: source organism: Francisella tularensis subsp. tularensis FSC198
# [35] = biological target: HLA-A*02:03; test: as above; conditions: source organism: Francisella tularensis subsp. tularensis FSC198
# [36] = biological target: HLA-C*14:02; test: IEDB peptide-MHC binding, purified MHC/direct/fluorescence; filed as Kd, often an IC50 or EC50 that approximates it; ≥ and ≤ were set here for values at or beyond the usual limits of such assays; conditions: source organism: Salmonella enterica subsp. enterica serovar Typhi str. CT18
# [37] = biological target: HLA-C*05:01; test: as above; conditions: source organism: Salmonella enterica subsp. enterica serovar Typhi str. CT18
# [38] = biological target: HLA-B*51:01; test: IEDB peptide-MHC binding, purified MHC/competitive/fluorescence; filed as Kd, often an IC50 or EC50 that approximates it; ≥ and ≤ were set here for values at or beyond the usual limits of such assays; conditions: source organism: Salmonella enterica subsp. enterica serovar Typhi
# [39] = biological target: HLA-B*07:02; test: as above; conditions: source organism: Salmonella enterica subsp. enterica serovar Typhi
# [40] = biological target: HLA-A*30:01; test: IEDB peptide-MHC binding, purified MHC/direct/fluorescence; filed as Kd, often an IC50 or EC50 that approximates it; ≥ and ≤ were set here for values at or beyond the usual limits of such assays; conditions: source organism: Vibrio parahaemolyticus
# [41] = biological target: HLA-A*02:12; test: IEDB peptide-MHC binding, purified MHC/competitive/fluorescence; filed as Kd, often an IC50 or EC50 that approximates it; ≥ and ≤ were set here for values at or beyond the usual limits of such assays; conditions: source organism: Haemophilus influenzae 22.1-21
# [42] = biological target: HLA-A*02:11; test: as above; conditions: source organism: Haemophilus influenzae 22.1-21
# [43] = source organism: Vibrio parahaemolyticus
# [44] = source organism: Bacillus anthracis
# [45] = source organism: Bacillus anthracis str. A0465
# [46] = source organism: Yersinia pestis Nepal516
# [47] = source organism: Francisella tularensis subsp. holarctica LVS
# [48] = source organism: Francisella tularensis subsp. tularensis FSC033
# [49] = source organism: Pseudomonas sp. KIE171
# [50] = source organism: Escherichia coli B171
# [51] = source organism: Haemophilus influenzae
sequence,measurement,setting,value
EHIPTMKIF,Kd,[1]; source organism: Camelpox virus M-96,1.34 µM
same,Kd,[2]; source organism: Variola virus,0.304 µM
NSDPEFNVL,Kd,[3]; [43],≥ 20 µM
same,Kd,[4]; [43],≥ 20 µM
same,Kd,[5],≥ 20 µM
same,Kd,[6]; [43],≥ 20 µM
same,Kd,[7]; [43],≥ 20 µM
same,Kd,[8]; [43],0.387 µM
same,Kd,[9]; [43],0.208 µM
same,Kd,[10]; [43],≥ 20 µM
same,Kd,[1]; source organism: Vibrio parahaemolyticus AQ3810,0.013 µM
same,Kd,[11]; [43],≥ 20 µM
same,Kd,[12]; [43],≥ 20 µM
same,Kd,[13]; [43],≥ 20 µM
same,Kd,[14]; [43],≥ 20 µM
same,Kd,[15],5.06 µM
same,Kd,[16]; [43],≥ 20 µM
same,Kd,[17]; [43],≥ 20 µM
YFENSDLNL,Kd,[18]; [44],≥ 20 µM
same,Kd,[3]; [44],≥ 20 µM
same,Kd,[19],7.5 µM
same,Kd,[20]; [44],0.13 µM
same,Kd,[21]; [44],≥ 20 µM
same,Kd,[4]; [45],≥ 20 µM
same,Kd,[6]; [44],≥ 20 µM
same,Kd,[7]; [44],≥ 5 µM
same,Kd,[22],0.65 µM
same,Kd,[8]; [44],≥ 20 µM
same,Kd,[10]; [44],≥ 20 µM
same,Kd,[1]; [45],≥ 20 µM
same,Kd,[11]; [44],≥ 20 µM
same,Kd,[23]; [44],≥ 20 µM
same,Kd,[12]; [44],≥ 20 µM
same,Kd,[14]; [45],≥ 20 µM
same,Kd,[2]; [45],≥ 20 µM
same,Kd,[16]; [44],≥ 20 µM
same,Kd,[17]; [44],≥ 20 µM
same,Kd,[24],≥ 20 µM
SVDGFRASY,Kd,[25],0.0013 µM
same,Kd,[26],0.0071 µM
SQMGLSCAL,Kd,[27]; [46],0.0976 µM
same,Kd,[28],0.0035 µM
same,Kd,[29]; [46],0.567 µM
same,Kd,[30],0.0046 µM
KRINSLIKY,Kd,[31],≥ 20 µM
same,Kd,[32],≥ 20 µM
same,Kd,[18]; [47],≥ 20 µM
same,Kd,[3]; [47],≥ 20 µM
same,Kd,[21]; [47],≥ 20 µM
same,Kd,[6]; [47],≥ 20 µM
same,Kd,[8]; [47],≥ 20 µM
same,Kd,[10]; [47],≥ 20 µM
same,Kd,[1]; [48],≥ 20 µM
same,Kd,[11]; [47],0.132 µM
same,Kd,[23]; [47],≥ 20 µM
same,Kd,[12]; [47],≥ 20 µM
same,Kd,[13]; [47],≥ 20 µM
same,Kd,[2]; [48],≥ 20 µM
same,Kd,[33],≥ 20 µM
same,Kd,[27]; source organism: Francisella tularensis subsp. tularensis FSC198,3 µM
same,Kd,[34],≥ 20 µM
same,Kd,[35],2.47 µM
AETLMAQPF,Kd,[36],2.31 µM
same,Kd,[29]; source organism: Salmonella enterica subsp. enterica serovar Typhi,0.0122 µM
FPPGTSLTI,Kd,[37],≥ 20 µM
same,Kd,[38],0.564 µM
same,Kd,[39],0.187 µM
HHSLTHHQL,Kd,[2]; source organism: Escherichia coli O157:H7 str. EC869,0.002 µM
VPWQEKTAS,Kd,[20]; [49],10.5 µM
same,Kd,[9]; [49],0.00328 µM
same,Kd,[12]; [49],5.81 µM
AELRLVHEL,Kd,[27]; [50],≥ 20 µM
same,Kd,[29]; [50],0.0069 µM
VMETENALF,Kd,[40],≥ 44.8 µM
same,Kd,[3]; [43],≥ 20 µM
same,Kd,[4]; [43],≥ 20 µM
same,Kd,[5],≥ 20 µM
same,Kd,[7]; [43],0.301 µM
same,Kd,[8]; [43],5.02 µM
same,Kd,[9]; [43],0.427 µM
same,Kd,[10]; [43],≥ 20 µM
same,Kd,[11]; [43],≥ 20 µM
same,Kd,[13]; [43],≥ 20 µM
same,Kd,[14]; [43],≥ 20 µM
same,Kd,[15],≥ 20 µM
same,Kd,[16]; [43],≥ 20 µM
same,Kd,[17]; [43],≥ 20 µM
RFLEDYFGV,Kd,[3]; [51],0.558 µM
same,Kd,[13]; [51],0.547 µM
same,Kd,[17]; [51],0.141 µM
same,Kd,[41],0.0443 µM
same,Kd,[42],0.0041 µM
